{"source": "patent US20250215105A1", "about": "“ANTI-CD39 ANTIBODY” (BrightPath Biotherapeutics Co., Ltd., priority 2022, published 2025)", "molecules": {"B1": {"name": "P4_sc: anti-CD39 scFvFc (Fc silent) from phage display (antibody, V domains shown)", "VH": "QVQLKESGPSLVQPSQSLSITCTVSGFSLTNYGVHWVRQSPGKGLEWLGVILRRGSTDYNAAFMSRLSITKDNSKSQVFFKMNSLQADDTAIYYCAKTAVVAGDYFDYWGQGTTLTVSS", "VL": "DIVMTQSHKFMSTSVGDRVSVTCKASQNVGTNVAWYQQKPGQSPKALIYSASYRYSGVPDRFTGSGSGTDFTLTISNVQSEDLAEYFCQQYNSYPLTFGTGTKLEIK", "modifications": "left off: another chain or arm of the molecule; a dimerising Fc or GST; small tags and cut ends", "notes": "anti-CD39 scFvFc (Fc silent) from phage display"}, "B2": {"name": "HuP4_IB_sc: humanized scFvFc obtained by humanizing P4_sc (antibody, V domains shown)", "VH": "QVQLLESGPELVKPSATLSITCTVSGFSLTNYGVHWIRQAPGKGLEWLGVILRRGSTDYNAAFMSRFTISKDNSKNQVYFKLRSVTAEDTAVYYCAKTAVVAGDYFDYWGQGTMVTVSS", "VL": "DIQMTQSHSTLSLSVGDRVTITCKASQNVGTNVAWYQQKPGQPPKALIYSASYRYSGVPSRFSGSGSGTDFTLTISSVQAEDVAVYYCQQYNSYPLTFGPGTKLEIK", "modifications": "left off: another chain or arm of the molecule; a dimerising Fc or GST; small tags and cut ends", "notes": "humanized scFvFc obtained by humanizing P4_sc"}, "B3": {"name": "T-31414h1lala: anti-CD39 antibody with variable regions described in US2019/0062448, IgG1-lala constant region (antibody, V domains shown)", "VH": "QVQLVQSGAEVKKPGASVKVSCKASGYTFKSYEMHWVRQAPGQGLEWMGRINPSVGSTWYAQKFQGRVIMIRDTSTSTVYMELSSLRSEDTAVYYCARGKREGGTEYLRNWGQGTLVTVSS", "VL": "EIVLIQSPGILSLSPGERATLSCRASQSVSSSYLAWYQQKPGQAPRLLIYGASSRATGIPDRFSGSGSGTDFTLTISRLEPEDFAVYYCQQYHSYITFGGGTKVEIK", "modifications": "IgG1 LALA constant regions; T-31414 VH; T-31414 VL", "notes": "anti-CD39 antibody with variable regions described in US2019/0062448, IgG1-lala constant region"}}, "key": {"human CD39 [1]": {"molecular_target": "T1, human CD39 (Homo sapiens, UniProt P49961)", "T1 sequence (P49961 1-510)": "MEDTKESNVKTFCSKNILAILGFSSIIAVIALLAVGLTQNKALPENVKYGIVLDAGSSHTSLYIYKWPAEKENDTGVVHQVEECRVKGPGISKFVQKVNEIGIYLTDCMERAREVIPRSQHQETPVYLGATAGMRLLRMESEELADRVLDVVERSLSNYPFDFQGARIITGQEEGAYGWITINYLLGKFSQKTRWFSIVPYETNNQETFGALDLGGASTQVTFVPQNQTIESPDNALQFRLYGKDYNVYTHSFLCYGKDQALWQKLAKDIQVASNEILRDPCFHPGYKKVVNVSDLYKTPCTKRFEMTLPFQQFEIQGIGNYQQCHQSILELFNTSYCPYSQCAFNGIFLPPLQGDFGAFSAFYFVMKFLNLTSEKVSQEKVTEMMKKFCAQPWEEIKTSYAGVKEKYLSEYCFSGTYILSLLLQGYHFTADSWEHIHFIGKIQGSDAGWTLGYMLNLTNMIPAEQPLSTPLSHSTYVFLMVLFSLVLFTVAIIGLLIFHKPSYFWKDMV", "test": "activity to inhibit CD39 enzyme (ATP hydrolysis by CD39-expressing cells, CellTiter-Glo)", "format": "cell-based", "design": "CD39^hi-expressing human melanoma cell line SK-MEL-28 (ATCC, HTB-72) or human ovarian adenocarcinoma cell line OAW-42; endogenous in cells; host or cells: SK-MEL-28 (ATCC, HTB-72) or OAW-42 (CLS, 300304)", "settings": "SK-MEL-28 or OAW-42 cells, ATP 10 μM", "description": "Two thousand SK-MEL-28 cells (ATCC, HTB-72), a CD39′-expressing line, suspended in 50 μl EMEM (Fujifilm, 055-08975) were seeded onto a 96-well V-bottom plate and incubated at 37° C. for 30 minutes with 150 μl of culture supernatant of single B cells. The cells were washed once with DPBS (Nacalai Tesque, 14249-24), then 100 μl of 5 μM ATP was added per well, and the mixture was incubated at 20° C. for 30 minutes. After centrifugation, 50 μl of the supernatant was separated, 50 μl CellTiter-Glo (Promega, G9243) was added and stirred, and after incubation at room temperature for 10 min, the amount of ATP was measured by chemiluminescence while using a microplate reader. The ability of B cell culture supernatant to inhibit CD39-mediated ATP hydrolysis was evaluated based on the amount of residual ATP.\nThe antibodies obtained in the above experiments were used to measure activity to inhibit CD39 enzyme by using the following procedure. […] After centrifugation, 50 μl of the supernatant was separated, 50 μl CellTiter-Glo was added and stirred, and after incubation at room temperature for 10 minutes, the level of chemiluminescence was measured using a microplate reader. Based on the amount of ATP consumed by SK-MEL-28 or OAW-42 cells, the ability of the antibody to inhibit CD39-mediated ATP hydrolysis was evaluated. […]"}, "Human CD39 antigen": {"molecular_target": "T2, Human CD39 antigen (Homo sapiens, UniProt P49961)", "T2 sequence (P49961 1-510)": "T1 sequence (P49961 1-510)", "test": "affinity by surface plasmon resonance (SPR) analysis", "settings": "Biacore 8K, 1:1 binding model", "description": "Kinetics of each antibody against their target antigen were measured using Biacore 8K (Cytiva). Each antibody to be measured was immobilized on a sensor chip (CM5) using a Mouse Antibody Capture Kit, type 2 (Cytiva, 29215281) for mouse antibodies and a Human Antibody Capture Kit, Type 2 (Cytiva, 26234600) for chimeric and humanized antibodies, respectively. Human CD39 antigen was subjected to 4-step dilution from […] to prepare each solution, the contact time was set to 120 seconds, the dissociation time was set to 600 seconds, and the flow rate was set to 30 μl/min. Under these conditions, HBS-EP+ was used as the running buffer, and each sample was then analyzed using the 1:1 binding model of multi-cycle kinetics."}, "human CD39 [2]": {"molecular_target": "T1, human CD39", "test": "CD39 binding analysis (FCM) using human CD39-overexpressing cells", "settings": "293T-hCD39 or Jurkat-hCD39 cells", "description": "3.1 CD39 binding analysis (FCM analysis) (using human CD39) Binding to target antigen-expressing cells was analyzed by FCM analysis using human CD39-overexpressing cells. The human CD39-overexpressing cells were generated using a lentiviral vector system (OriGene, PS100069). Lentiviral particles carrying the human CD39 gene (Gene ID: 953) as the target gene together with the puromycin resistance gene were generated and used to infect HEK293T or Jurkat cells therewith. Then, the cells were cultured in the presence of puromycin. HEK293T or Jurkat cells ([…] or Jurkat-hCD39) in which the target gene was integrated into the genome and which became positive for human CD39 were collected and used for FCM analysis. Test or isotype control antibodies at a final concentration of 2 μg/mL or at the concentrations indicated in the figure were reacted with 1×10^5 cells for 15 minutes at 4° C., followed by washing twice with 0.5% BSA, 2 mM EDTA, and D-PBS. After washing, a fluorescent-labeled secondary antibody (anti-human IgG Fc, HP6017) was added, and the cells were stained at 4° C. for 15 minutes under light-shielded conditions, followed by washing twice in a similar manner. After addition of 7AAD (BioLegend, 420404), fluorescence intensity was measured using a flow cytometer (FACSVerse, BD). Antibody binding was evaluated based on the fluorescence intensity obtained."}, "Cynomolgus monkey CD39": {"test_system": "Cynomolgus monkey CD39", "test": "CD39 binding analysis (FCM) using Cynomolgus monkey CD39-overexpressing cells", "settings": "293T-cynoCD39 cells, 2 μg/ml antibody", "description": "Binding to target antigen-expressing cells was analyzed using Cynomolgus monkey CD39-overexpressing cells. This analysis was used to check cross-reactivity. The Cynomolgus monkey CD39-overexpressing cells were generated using a lentiviral vector system (OriGene, PS100069). Lentiviral particles carrying the Cynomolgus monkey CD39 gene (Gene ID: 102132860) as the target gene together with the puromycin resistance gene were generated and used to infect HEK293T cells therewith. Then, the cells were cultured in the presence of puromycin. HEK293T cells (293T-cynoCD39) in which the target gene was integrated into the genome and which became positive for Cynomolgus monkey CD39 were collected and used for FCM analysis. The cells were reacted with 2 μg/ml test antibody or isotype control antibody, stained with a fluorescence-labeled secondary antibody, and evaluated for antibody binding based on the fluorescence intensity obtained by flow cytometry analysis."}, "[3]": {"test_system": "human lung cancer cell line NCI-H292", "test": "anti-tumor activity: NCI-H292 growth with stimulated PBMCs and ATP (IncuCyte)", "format": "cell-based", "settings": "NCI-H292 with PBMCs E/T 2, ATP 500 μM", "description": "The human lung cancer cell line NCI-H292 having red fluorescent protein (RFP) was seeded on a 96-well plate and cultured overnight. The next day, after removal of the medium, IL-2 (Miltenyi, 130-097-745) at a final concentration of 30 IU as suspended in X-VIVO-15™ medium (Lonza, 04-418Q) and an anti-human CD39 antibody or isotype control antibody at a final concentration of 0.3 to 100 μg/mL were added and the mixture was incubated at 37° C. for 30 minutes. Then, PBMCs from healthy volunteers stimulated with Dynabeads™ Human T-Activator CD3/CD28 (VERITAS, DB11131) for 10 days were added at an E/T ratio of 2 and the mixture was incubated at 37° C. for 30 minutes. […] This made it possible to evaluate the anti-tumor activity of the antibody due to its ability to promote the cytotoxic activity of PBMCs."}}, "data": [{"molecule": "B1", "values": [{"measurement": "CD39 inhibitory activity", "setting": "human CD39 [1]", "value": "activity to inhibit human CD39"}, {"measurement": "affinity for human CD39 (KD)", "setting": "Human CD39 antigen", "value": "favorable affinity"}, {"measurement": "affinity for human CD39 on the cell surface", "setting": "human CD39 [2]", "value": "favorable affinity"}, {"measurement": "binding to monkey CD39", "setting": "Cynomolgus monkey CD39", "value": "bound to monkey CD39"}]}, {"molecule": "B2", "values": [{"measurement": "CD39 inhibitory activity", "setting": "human CD39 [1]", "value": "favorable CD39 inhibitory activity"}]}, {"molecule": "B3", "values": [{"measurement": "growth rate of cancer cells", "setting": "[3]", "value": "approximately 0.9"}]}]}
